# Test results as given in patent publication US20250197838A1, “UROKINASE-TYPE PLASMINOGEN ACTIVATOR RECEPTOR BINDING PEPTIDES AND METHODS OF USE” (The United States Government as represented by the …, priority 2022, published 2025).
# B1: W4A variant: zymogen FXII with single Ala substitution of W residue at position 4 (protein)
# chain: IPPAEAPKEHKYKAEEHTVVLTVTGEPCHFPFQYHRQLYHKCTHKGRPGPQPWCATTPNFDQDQRWGYCLEPKKVKDHCSKHSPCQKGGTCVNMPSGPHCLCPQHLTGNHCQKEKCFEPQLLRFFHKNEIWYRTEQAAVARCQCKGPDAHCQRLASQACRTNPCLHGGRCLEVEGHRLCHCPVGYTGAFCDVDTKASCYDGRGLSYRGLARTTLSGAPCQPWASEATYRNVTAEQARNWGLGGHAFCRNPDNDIRPWCFVLNRDRLSWEYCDLAQCQTPTQAAPPTPVSPRLHVPLMPAQPAPPKPQPTTRTPPQSQTPGALPAKREQPPSLTRNGPLSCGQRLRKSLSSMTRVVGGLVALRGAHPYIAALYWGHSFCAGSLIAPCWVLTAAHCLQDRPAPEDLTVVLGQERRNHSCEPCQTLAVRSYRLHEAFSPVSYQHDLALLRLQEDADGSCALLSPYVQPVCLPSGAARPSETTLCQVAGWGHQFEGAEEYASFLQEAQVPFLSLERCSAPDVHGSSILPGMLCAGFLEGGTDACQGDSGGPLVCEDQAAERRLTLQGIISWGSGCGDRNKPGVYTDVAYYLAWIREHTVS
# Experiments:
# uPAR [1] = molecular target: T1, uPAR (Homo sapiens, UniProt Q03405); assay: Hydroxyl radical footprinting (HRF) with LC-MS: free FXII vs FXII in complex with uPAR; type: binding
# Procedure: Briefly, free uPAR and human FXII protein samples were prepared with the final protein concentration of 2.5 μM and 3 μM, respectively (1:1.2 uPAR: FXII molar ratio). Free uPAR and FXII and FXII-uPAR complex were exposed to hydroxyl radicals for intervals of 0, 12, 20, and 40 milliseconds using the X-ray beam line. Next, the irradiated samples were reduced and alkylated with 10 mM and 25 mM of DTT and iodoacetamide, respectively. Subsequently, the samples were subjected to a trypsin and AspN digestion (1:10 enzyme to protein ratio) followed by liquid chromatography coupled with high-resolution mass spectrometry (LC-MS). The MS data were analyzed manually resulting in dose-response plots for each peptide. The HRF process introduces stable side chain oxidative modifications resulting in specific mass shifts, which were identified from the tandem mass spectrometry data. The selected ion chromatograms (SIC) were extracted and integrated for the un-oxidized and the oxidized forms of peptide ion (with particular m z). These peak area values were used to characterize reaction kinetics in the form of dose-response (DR) plots, which measure the loss of intact peptide as a function of the hydroxyl radical exposure. […] Differences in the rate of oxidation (called rate constant, RC) indicate the potential locations of the binding interface. MSI data for free and complex proteins were used to determine RC values for each peptide within the protein. Peptide location and the corresponding sequence are shown in columns 1 and 2, respectively. The third and fourth columns show the RC values for the free FXII protein and complex, respectively. The RC values were averaged from replicate experiments and the associated errors are shown next to each RC value.
# Target sequence in this assay (Q03405 23-305 limits assumed): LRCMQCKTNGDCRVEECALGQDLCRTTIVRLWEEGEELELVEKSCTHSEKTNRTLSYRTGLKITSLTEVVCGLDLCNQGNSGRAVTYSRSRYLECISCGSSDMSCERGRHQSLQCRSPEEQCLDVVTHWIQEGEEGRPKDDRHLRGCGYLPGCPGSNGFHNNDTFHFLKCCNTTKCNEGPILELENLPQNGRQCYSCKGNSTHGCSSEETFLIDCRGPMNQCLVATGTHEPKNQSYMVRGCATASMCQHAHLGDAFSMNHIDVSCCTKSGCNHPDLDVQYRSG
# FXII-uPAR binding = FXII-uPAR binding (Homo sapiens, UniProt Q03405); assay: Microscale thermophoresis of FXII-uPAR binding in absence or presence of FXII-derived inhibitory peptides; details: FIG. 2A
# Procedure: FIGS. 2A-D show the characterization of FXII-derived inhibitory peptides. […] FXII_fl: recombinant full length FXII: Combo: combination of IPP-DLA-LHV peptides, 10 μM each. * p=0.004 FXII_fl vs. Combo, 2-way ANOVA.
# The results provide insight on the structure of the non-catalytic region of FXII. These advances have also provided the structural details required to develop peptide antagonists. To this end, 3 peptides containing FXII amino acid residues implicated in uPAR binding were synthesized and termed “IPP” (corresponding to SEQ ID NO: 1), “DLA” (corresponding to SEQ ID NO: 2), and “LHV” (corresponding to SEQ ID NO: 3). The kinetics of peptide interference with FXII-uPAR binding was screened which yielded nanomolar affinity for each (FIG. 2A).
# [2] = molecular target: T2, urokinase-type plasminogen activator receptor (uPAR; Plaur, Homo sapiens) (Homo sapiens, UniProt Q03405 23-305, limits assumed); assay: peptide interference with FXII-uPAR binding, microscale thermophoresis
# T2 construct: also called human uPAR; human soluble uPAR
# uPAR [3] = molecular target: T1, uPAR; assay: Microscale thermophoresis of uPAR binding on site-directed FXII mutants (Ala substitutions); details: FIG. 1D
# Text: FIGS. 1A-D show the characterization of the FXII-uPAR binding interphase.
# Each variant was characterized in several assays including microscale thermophoresis. […] These findings explain, at least in part, why the FXII-uPAR interaction is not a constitutive process in vivo.
# Target sequence in this assay (Q03405 23-305): as the sequence (Q03405 23-305 limits assumed) above
# Sequence of FXII-uPAR binding (Q03405 23-305 limits assumed): as above
# T2 sequence (Q03405 23-305 limits assumed): as above
molecule,measurement,setting,value
IPPWEAPK [listing 1 of 2 here],"Modification rate, KFXII, S^−1 FXII free","uPAR [1]; site W4, FXII position 1-8",3.08 ± 0.25 S^−1
same,"Modification rate, KCOM, S^−1 FXII complex","uPAR [1]; site W4, FXII position 1-8, complex with human uPAR",3.08 ± 0.13 S^−1
DLAQCQTPTQAAPPTPVSPR [listing 1 of 2 here],"affinity, peptide interference with FXII-uPAR binding",FXII-uPAR binding,nanomolar
IPPWEAPK [listing 2 of 2 here],"affinity, peptide interference with FXII-uPAR binding",FXII-uPAR binding,nanomolar
LHVPLMPAQPAPPK [listing 1 of 2 here],"Modification rate, KFXII, S^−1 FXII free","uPAR [1]; site H293, FXII position 292-305",2.55 ± 0.30 S^−1
same,"Modification rate, KCOM, S^−1 FXII complex","uPAR [1]; site H293, FXII position 292-305, complex with human uPAR",1.82 ± 0.15 S^−1
same,"Modification rate, KFXII, S^−1 FXII free","uPAR [1]; site K305, FXII position 292-305",1.06 ± 0.063 S^−1
same,"Modification rate, KCOM, S^−1 FXII complex","uPAR [1]; site K305, FXII position 292-305, complex with human uPAR",0.58 ± 0.042 S^−1
same,"Modification rate, KFXII, S^−1 FXII free","uPAR [1]; site L296, FXII position 292-305",0.62 ± 0.054 S^−1
same,"Modification rate, KCOM, S^−1 FXII complex","uPAR [1]; site L296, FXII position 292-305, complex with human uPAR",0.29 ± 0.057 S^−1
same,"Modification rate, KFXII, S^−1 FXII free","uPAR [1]; site V294, FXII position 292-305",0.85 ± 0.093 S^−1
same,"Modification rate, KCOM, S^−1 FXII complex","uPAR [1]; site V294, FXII position 292-305, complex with human uPAR",0.79 ± 0.078 S^−1
DLAQCQTPTQAAPPTPVSPR [listing 2 of 2 here],"Modification rate, KFXII, S^−1 FXII free","uPAR [1]; site P285, FXII position 272-291",1.3 ± 0.061 S^−1
same,"Modification rate, KCOM, S^−1 FXII complex","uPAR [1]; site P285, FXII position 272-291, complex with human uPAR",0.87 ± 0.030 S^−1
same,"Modification rate, KFXII, S^−1 FXII free","uPAR [1]; site P287, FXII position 272-291",0.23 ± 0.021 S^−1
same,"Modification rate, KCOM, S^−1 FXII complex","uPAR [1]; site P287, FXII position 272-291, complex with human uPAR",0.11 ± 0.009 S^−1
same,"Modification rate, KFXII, S^−1 FXII free","uPAR [1]; site Q281, FXII position 272-291",0.97 ± 0.047 S^−1
same,"Modification rate, KCOM, S^−1 FXII complex","uPAR [1]; site Q281, FXII position 272-291, complex with human uPAR",0.53 ± 0.019 S^−1
same,"Modification rate, KFXII, S^−1 FXII free","uPAR [1]; site V288, FXII position 272-291",0.71 ± 0.04 S^−1
same,"Modification rate, KCOM, S^−1 FXII complex","uPAR [1]; site V288, FXII position 272-291, complex with human uPAR",0.46 ± 0.019 S^−1
LHVPLMPAQPAPPK [listing 2 of 2 here],"affinity, peptide interference with FXII-uPAR binding",FXII-uPAR binding,nanomolar
IPPWEAPK (Synthesized FXII-derived peptide) [IPP peptide (IPPWEAPK)],binding result,[2],binds
DLAQCQTPTQAAPPTPVSPR (Synthesized FXII-derived peptide) [DLA peptide (DLAQCQTPTQAAPPTPVSPR)],binding result,[2],binds
LHVPLMPAQPAPPK (Synthesized FXII-derived peptide) [LHV peptide (LHVPLMPAQPAPPK)],binding result,[2],binds
B1,FXII-uPAR binding of FXII variant,uPAR [3],significantly reduced
